Results as given in patent US20240293316A1, “ENZYME-RESPONSIVE POLYMER PEPTIDE AMPHIPHILES FOR TARGETED DRUG DELIVERY TO TREAT LOCAL AND SYSTEMIC INFLAMMATION” (Ramot at Tel-Aviv University Ltd., priority 2021, published 2024).
Square brackets hold non-standard residues; d marks the D form. Ends that are not written are not given here. * marks the point of attachment. NorAHA = (N-hexanoic acid)-5-norbornene-exo-2,3-dicarboximide, O=C1[C@@H]2[C@H](C(=O)N1CCCCCC(=O)*)[C@H]1C=C[C@@H]2C1

Tests used:
[1] = Properties of the designed random peptide (water solubility, net charge); type: physicochemical
Procedure: A new random peptide sequence was designed by replacing the MMP recognizable amino acid sequence PLGLAG (SEQ ID NO: 16) into GSGSGS (SEQ ID NO: 20).
Following the preparation of peptide functionalized norbornene monomers, an MMP-9 cleavage assay was performed setup, as described in the Materials and Methods section hereinabove.

[2] = system: diabetic rats following collagen membrane implantation; experiment: Diabetic rats with implanted collagen membrane, fluorescence imaging of DEX-containing nanoparticles; type: in vivo, Female Sprague Dawley rats; conditions: for order of in-vivo fluorescence intensity: 7- and 14-days post injection
Procedure: (§1) “Diabetic induction” model [Zoabi et al. 2020, supra]: Type 1-like diabetes was induced through a single intraperitoneal injection of streptozotocin, and the induction of hyperglycemia is confirmed by a blood glucose level that is higher than 270 mg/dL at 7 days post injection;
(§2) “Collagen membrane implantation” under scalp of diabetic rats, wherein a para-sagital excisional wound, 10 mm in length, was created in the center of the skin of the calvaria, the periosteum was separated from the skull bone, and a collagen membrane was implanted beneath [Eliezer M, Nemcovsky C, Romanos G, Kozlovsky A, Tal H, Kolerman R, Weinreb M, Moses O. Opposing effects of diabetes and tetracycline on the degradation of collagen membranes in rats. J Periodontol. 2013 April; 84(4):529-34; Tal H, Weinreb M, Shely A, Nemcovsky C E, Moses O. Tetracycline impregnation affects degradation of porcine collagen matrix in healthy and diabetic rats. Clin Oral Investig. 2016 July; 20(6):1237-42; Moses O, Eliezer M, Nemcovsky C, Tal H, Weinreb M. Accelerated degradation of collagen membranes in diabetic rats is associated with increased infiltration of macrophages and blood vessels. Clin Oral Investig. 2016 September; 20(7):1589-96; Eliezer M, Sculean A, Miron R J, Nemcovsky C, Weinberg E, Weinreb M, Zoabi H, Bosshardt D D, Fujioka-Kobayashi M, Moses O. Hyaluronic acid slows down collagen membrane degradation in uncontrolled diabetic rats. J Periodontal Res. 2019 December; 54(6):644-652; and Zoabi H, Nemcovsky C E, Bender O, Moses O, Weinreb M. Accelerated degradation of collagen membranes in type 1 diabetic rats is associated with increased expression and production of several inflammatory molecules. J Periodontol. 2020 October; 91(10):1348-13561.
Type 1-like diabetes was induced as described in the Materials and Methods section, and the induction of hyperglycemia was confirmed by a blood glucose level higher than 270 mg/dL 7 days post injection (see, FIGS. 13A and 13B).
(§3) At day 8, the rats were randomly divided into five groups to receive one single dosage of: i) NPL, ii) NPD, iii) NPR, iv) free DEX, or v) no injection, through a subcutaneous injection posterior to the ear (n=12 for each treatment group and n=3 for the no injection control group). For each treated group, 260 μg of DEX (either free-form or conjugated to the polymer) was used to provide a […] dosage similar to the literature value. Thus, the PPA NPs injection contained 250 μM polymer with 50% (125 μM) Cy 5.5 labeling, for each 200 μL injection.

thermolysin = thermolysin (Bacillus thermoproteolyticus, UniProt P00800); conditions: 1 μM thermolysin:100 μM polymer, 24 hours incubation at 37° C.
Chain of thermolysin (P00800 233-548, species assumed): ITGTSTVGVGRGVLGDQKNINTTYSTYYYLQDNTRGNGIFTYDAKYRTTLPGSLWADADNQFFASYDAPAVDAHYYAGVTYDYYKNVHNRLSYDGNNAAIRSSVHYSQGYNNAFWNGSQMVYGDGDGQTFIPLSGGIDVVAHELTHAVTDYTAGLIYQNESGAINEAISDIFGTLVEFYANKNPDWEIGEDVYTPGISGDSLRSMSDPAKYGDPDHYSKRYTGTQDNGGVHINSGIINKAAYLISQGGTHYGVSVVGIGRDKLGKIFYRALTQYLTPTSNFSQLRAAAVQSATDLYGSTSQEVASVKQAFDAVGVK
Procedure: Transmission electron microscopy (TEM): Nanoparticles were characterized using a Hitachi HD-2300 STEM. Grids were prepared using a 1% uranyl acetate solution.
The nanoparticle cleavage experiment was performed similarly as described in Materials and Methods section, using a ratio of 1 μM thermolysin:100 μM polymer for 24 hours incubation at 37° C.

[3] = system: diabetic rats following collagen membrane implantation; experiment: Diabetic rats with implanted collagen membrane, histology of residual collagen membrane (HRP-Avidin); type: in vivo, Female Sprague Dawley rats
Procedure: as §1, §2, §3
Two weeks following injection, the rats were sacrificed with carbon dioxide overdose, and the skull together with the over lining periosteum and the membrane were harvested.
The harvested skull together with the over lining periosteum and the membrane were subjected to the following processing: tissues from 10 rats per group were fixed with paraformaldehyde, and processed for decalcified tissue histology, embedded in paraffin. […]

MMP-9 = MMP-9 (Homo sapiens, UniProt P14780); experiment: MMP-9 cleavage assay of norbornene peptide monomers (HPLC); type: biochemical; conditions: 0.5 μM MMP-9: 500 μM NorMMP, 24 hours of incubation at 37° C.
Chain of MMP-9 (P14780 94-707): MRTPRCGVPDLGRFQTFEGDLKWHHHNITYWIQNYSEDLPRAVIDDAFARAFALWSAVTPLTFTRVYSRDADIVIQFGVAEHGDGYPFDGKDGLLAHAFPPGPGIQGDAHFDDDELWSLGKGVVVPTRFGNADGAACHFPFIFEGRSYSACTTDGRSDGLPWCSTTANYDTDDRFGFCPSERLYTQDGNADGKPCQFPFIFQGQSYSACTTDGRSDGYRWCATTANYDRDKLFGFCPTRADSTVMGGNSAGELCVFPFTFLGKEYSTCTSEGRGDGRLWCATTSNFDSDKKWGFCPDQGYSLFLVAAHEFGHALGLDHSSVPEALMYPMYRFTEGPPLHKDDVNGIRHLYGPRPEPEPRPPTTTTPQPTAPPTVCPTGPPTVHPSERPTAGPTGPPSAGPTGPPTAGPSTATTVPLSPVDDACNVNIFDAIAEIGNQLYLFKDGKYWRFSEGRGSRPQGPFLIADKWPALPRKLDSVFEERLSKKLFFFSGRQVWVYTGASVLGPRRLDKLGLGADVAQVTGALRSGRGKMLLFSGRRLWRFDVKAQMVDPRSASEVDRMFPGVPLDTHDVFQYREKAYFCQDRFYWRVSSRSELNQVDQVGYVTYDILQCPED
Procedure: Stock solution of NorMMP peptide (510 μM) was prepared in DPBS buffer. To an Eppendorf tube, 1.5 μL MMP-9 stock (38.46 μM) and […] of NorMMP stock was added, giving a final concentration of 0.5 μM MMP-9: 500 μM NorMMP. The solution was incubated at 37° C. for 24 hours to promote peptide cleavage. To prepare the HPLC sample, 50 μL of the reaction mixture was added to 150 μL of DPBS buffer. 40 μL of resulting solution was injected into HPLC for analysis. For NorMMPL, NorMMPD and the cleavable sequence ([…]), a gradient of 20-60% Buffer B over 30 minutes was used. For the NorMMPR, a gradient of 20-40% Buffer B in 30 minutes was used.
Three test groups, including the norbornenes functionalized with random peptide (NorMMPR), D- and L-MMP peptide (NorMMPD and NorMMPL), and one control group with the cleaved peptide sequence […] were setup.

[4] = single dose, 260 μg of DEX, two weeks following injection

GGSGSGSGWGERDGS-NH2 (C-terminus assumed) [random peptide]
water solubility [1]: good water solubility

MMP peptide: peptide comprising PLGLAG sequence with all L-amino acids (SEQ ID NO: 1), MMP-cleavable (GPLGLAGGERDG-NH2)
net charge ([1]; pH=7): −1

NPD: micellar nanoparticles formed of DEX-containing D-MMP-containing PPA (PPAD) (NorAHA-G[dP][dL]G[dL][dA]GGERDG-NH2; not fully specified; also: grafted via NorAHA into ROMP polynorbornene block copolymer, micellar nanoparticle)
order of in-vivo fluorescence intensity [2]: NPL>NPD>NPR | nanoparticle morphology upon thermolysin treatment (TEM) (thermolysin): maintained their nanoparticle morphology

NPL: micellar nanoparticles formed of DEX-containing L-MMP-containing PPA (PPAL) (NorAHA-GPLGLAGGERDG-NH2; not fully specified; also: micellar nanoparticle of NorDEX20-b-NorMMP5 polynorbornene block copolymer with DEX ester)
order of in-vivo fluorescence intensity [2]: NPL>NPD>NPR | in-vivo fluorescence intensity compared to NPD and NPR controls ([2]; 7- and 14-days post injection (day 14 and day 21)): significantly higher | nanoparticle morphology upon thermolysin treatment (TEM) (thermolysin): cleavage induced aggregation | collagen membrane area, higher than the free dexamethasone group [3, 4]: about 20% | collagen membrane area, higher than the no treatment group [3, 4]: about 40% | remaining collagen membrane area compared to free-form dexamethasone-treated group [3, 4]: significantly larger | voids in the residual collagen membranes compared to free-form dexamethasone and no injection groups ([3]; staining and histology analysis): significantly less voids

NPR: micellar nanoparticles formed of DEX-containing random-peptide PPA (PPAR) (GGSGSGSGWGERDGS)
order of in-vivo fluorescence intensity [2]: NPL>NPD>NPR | nanoparticle morphology upon thermolysin treatment (TEM) (thermolysin): maintained their nanoparticle morphology

NorMMPD: norbornene monomer with D-MMP peptide (SEQ ID NO: 2), D-amino acids in the PLGLAG portion (NorAHA-G[dP][dL]G[dL][dA]GGERDG-NH2; not fully specified)
cleavage by MMP-9 (HPLC traces) (MMP-9): remained intact

NorMMPL: norbornene monomer functionalized with L-MMP peptide (SEQ ID NO: 1), MMP-cleavable (NorAHA-GPLGLAGGERDG-NH2; SMILES CC(C)C[C@H](NC(=O)CNC(=O)[C@H](CC(C)C)NC(=O)[C@@H]1CCCN1C(=O)CNC(=O)CCCCCN1C(=O)[C@@H]2[C@H](C1=O)[C@H]1C=C[C@@H]2C1)C(=O)N[C@@H](C)C(=O)NCC(=O)NCC(=O)N[C@@H](CCC(=O)O)C(=O)N[C@@H](CCCNC(=N)N)C(=O)N[C@@H](CC(=O)O)C(=O)NCC(N)=O)
cleavage by MMP-9 (HPLC traces) (MMP-9): completely cleaved

NorMMPR: norbornene monomer with R-MMP random peptide (SEQ ID NO: 17) (NorAHA-GGSGSGSGWGERDGS-NH2; not fully specified)
cleavage by MMP-9 (HPLC traces) (MMP-9): remained intact
